The values below come from article PMC5451212, “RISC-interacting clearing 3’- 5’ exoribonucleases (RICEs) degrade uridylated cleavage fragments to maintain functional RISC in Arabidopsis thaliana” (eLife, 2017).

Substitutions are numbered along the chain they refer to. Names may count otherwise. “And” between values parts separate entries of the source, which are not always exact repeats. Identical values can stand only once.

What is called stoichiometry N is a count of units in the complex or per binding partner.

For one data set, the target named is T1, 6His-SUMO-RICE1 (A. thaliana, UniProt Q9SF21 1-200).
T1 construct: RICE1 (At3g11770), A. thaliana; open reading frame in pET28a-SUMO-DC; source: E. coli BL21 (DE3), purified (Ni-NTA); not shown: His6, N-terminal, kept; SUMO, N-terminal, kept
T1 sequence (looked up): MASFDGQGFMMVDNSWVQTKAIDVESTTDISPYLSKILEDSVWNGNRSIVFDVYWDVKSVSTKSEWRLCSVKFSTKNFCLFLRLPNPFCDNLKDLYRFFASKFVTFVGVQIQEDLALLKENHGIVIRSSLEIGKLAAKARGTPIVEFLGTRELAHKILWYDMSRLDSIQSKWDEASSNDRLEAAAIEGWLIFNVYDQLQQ
Kind of data set: pull-down; His-SUMO baits and MBP-fusion preys purified from E. coli; prey preabsorbed on Ni-NTA resin, then incubated with bait 1 hr at room temperature and captured on Ni-NTA; 50 mM Tris pH 7.5, 150 mM NaCl, 0.2% glycerol, 0.6% Triton X-100, 0.5 mM β-mercaptoethanol; six washes with 300 mM NaCl; blot with anti-MBP. The settings on record: both partners purified.

The target of the next data set is T2, 6His-SUMO-RICE2 (A. thaliana, UniProt Q9FNG3 1-206).
T2 construct: RICE2 (At5g06450; AtDECP), A. thaliana; open reading frame in pET28a-SUMO-DC; also called AtDECP; source: E. coli BL21 (DE3), purified (Ni-NTA); not shown: His6, N-terminal, kept; SUMO, N-terminal, kept
T2 sequence (looked up): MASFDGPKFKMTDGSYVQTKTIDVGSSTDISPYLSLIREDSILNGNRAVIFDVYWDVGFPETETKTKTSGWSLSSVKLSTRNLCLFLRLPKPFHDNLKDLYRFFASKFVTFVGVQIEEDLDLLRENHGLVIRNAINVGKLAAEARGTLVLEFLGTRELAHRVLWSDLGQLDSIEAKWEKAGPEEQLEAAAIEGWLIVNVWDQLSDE
Described as above. The settings on record: both partners purified.

Data set [1] deals with the molecule itself. Kind of data set: SEC; purified proteins after SUMO protease cleavage on Superdex75 (1.6 x 60), 20 mM Tris-HCl pH 7.5, 150 mM NaCl. On the technique in general: SEC sorts molecules by how far they enter the pores of the column.
Data set [2] concerns the molecule itself. Nature of the data set: crystal structure; RICE1 at 20 mg/ml, hanging drop at 16°C, ~30% pentaerythritol propoxylate (5/4 PO/OH), 0.2 M KCl, 50 mM HEPES pH 7.5; space group I4(1)22, three molecules in the asymmetric unit.
Data set [3] deals with the molecule itself. Kind of data set: SEC; purified RICE1 D114A on Hiload 16/600 Superdex 200 instead of the routinely used Superdex 75.

B1: MBP-AGO10 PAZ (337-474) (domain or fragment, A. thaliana, UniProt Q9XGW1 337-474, looked up)
chain: LPVIEFVAQLLGKDVLSKPLSDSDRVKIKKGLRGVKVEVTHRANVRRKYRVAGLTTQPTRELMFPVDENCTMKSVIEYFQEMYGFTIQHTHLPCLQVGNQKKASYLPMEACKIVEGQRYTKRLNEKQITALLKVTCQR
notes: AGO10, A. thaliana, residues 337-474 (PAZ); source: E. coli BL21 (DE3), purified (amylose resin); not shown: MBP, N-terminal, kept
For the molecule B1, the binding result with 6His-SUMO-RICE1 and with 6His-SUMO-RICE2 was “binds” in each case.

B2: RICE1, purified recombinant (SUMO tag cleaved) (enzyme, A. thaliana, UniProt Q9SF21 1-200, looked up)
chain: T1 sequence (looked up)
notes: RICE1 (At3g11770), A. thaliana; full-length cDNA in pET28a-SUMO (BamHI/SacI); also called wild type RICE1; source: E. coli BL21 (DE3), purified (Ni-NTA, SUMO protease cleavage, SEC); not shown: His6, N-terminal, cleaved; SUMO, N-terminal, cleaved
As for B2, the “stoichiometry N” value is around 6 in data set [1] and 6 in data set [2].

B3: RICE1 D114A, purified recombinant (enzyme, A. thaliana, UniProt Q9SF21 1-200, looked up)
chain: T1 sequence (looked up) with D114A
notes: RICE1 (At3g11770), A. thaliana; point mutant made on pET28a-SUMO-RICE1; source: E. coli BL21 (DE3), purified (Ni-NTA, SUMO protease cleavage, SEC); not shown: His6, N-terminal, cleaved; SUMO, N-terminal, cleaved
With B3, the “stoichiometry N” value in data set [3] is 2 and 6.
